Biological target: IL-15 receptor on the IL-15 cells of the IL-15 bioassay (Promega, cat.# JA2015) (mouse cell line)
Experiment: cell-based or functional assay

Fold induction, IL-15 bioassay: 0.9 fold
Substance: trastuzumab (Herceptin), non-modified antibody
